According to patent US20190353647A1 (UNIVERSITE DE BORDEAUX, published 2019):

Biological target: YFP-CaM (human, UniProt P0DP23 2-149)
Test: BRET titration curves in live HEK293T cells

B1: TRPV1-Luc (receptor)
chain: MKKWSSTDLGAAADPLQKDTCPDPLDGDPNSRPPPAKPQLSTAKSRTRLFGKGDSEEAFPVDCPHEEGELDSCPTITVSPVITIQRPGDGPTGARLLSQDSVAASTEKTLRLYDRRSIFEAVAQNNCQDLESLLLFLQKSKKHLTDNEFKDPETGKTCLLKAMLNLHDGQNTTIPLLLEIARQTDSLKELVNASYTDSYYKGQTALHIAIERRNMALVTLLVENGADVQAAAHGDFFKKTKGRPGFYFGELPLSLAACTNQLGIVKFLLQNSWQTADISARDSVGNTVLHALVEVADNTADNTKFVTSMYNEILMLGAKLHPTLKLEELTNKKGMTPLALAAGTGKIGVLAYILQREIQEPECRHLSRKFTEWAYGPVHSSLYDLSCIDTCEKNSVLEVIAYSSSETPNRHDMLLVEPLNRLLQDKWDRFVKRIFYFNFLVYCLYMIIFTMAAYYRPVDGLPPFKMEKTGDYFRVTGEILSVLGGVYFFFRGIQYFLQRRPSMKTLFVDSYSEMLFFLQSLFMLATVVLYFSHLKEYVASMVFSLALGWTNMLYYTRGFQQMGIYAVMIEKMILRDLCRFMFVYIVFLFGFSTAVVTLIEDGKNDSLPSESTSHRWRGPACRPPDSSYNSLYSTCLELFKFTIGMGDLEFTENYDFKAVFIILLLAYVILTYILLLNMLIALMGETVNKIAQESKNIWKLQRAITILDTEKSFLKCMRKAFRSGKLLQVGYTPDGKDDYRWCFRVDEVNWTTWNTNVGIINEDPGNCEGVKRTLSFSLRSSRVSGRHWKNFALVPLLREASARDRQSAQPEEVYLRQFSGSLKPEDAEVFKSPAASGEKVPVNSGGGGS
notes: whole, on cells; BRET donor fusion, Luc at the C-terminus of TRPV1; transiently expressed in live HEK293T cells; also called hTRPV1-Luc; not shown: Renilla Luciferase II (Luc, Luc2, a mutant of Renilla reniformis luciferase)
- binding result: binds
